Experimental data from patent US20220288124A1 (AUGUSTA UNIVERSITY RESEARCH INSTITUTE, published 2022).
Where “and” joins values, the source holds several entries; their conditions need not be identical. Identical values can stand only once.

T1: N2 (30-68) (human, UniProt P51654)
T1 construct: overlapping synthetic peptide
T1 peptide (looked up): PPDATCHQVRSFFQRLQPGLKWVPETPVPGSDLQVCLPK

T2: N3 (59-97) (human, UniProt P51654)
T2 construct: overlapping synthetic peptide
T2 peptide (looked up): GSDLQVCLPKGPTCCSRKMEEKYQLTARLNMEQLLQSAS

T3: N1 peptide (AA25-39 of hGPC3) (human, UniProt P51654 25-39)
T3 construct: range 25-39
T3 peptide (looked up): QPPPPPPDATCHQVR

T4: N4 (88-126) (human, UniProt P51654)
T4 construct: overlapping synthetic peptide
T4 peptide (looked up): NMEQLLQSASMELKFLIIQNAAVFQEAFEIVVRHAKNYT


Experiments:
[1] = biological target: T1, N2 (30-68); assay: ELISA on plate-coated synthetic peptide, anti-human IgG-HRP
Description: (§1) 96-well Flat-Bottom Immuno Plates (from Thermo Fisher) were coated with 4 ug of PBS-diluted peptides, overnight, at […]. 1 ug of rhGPC3 (from Creative Biomart) was used as positive control. The next day, peptides were discarded and plates were blocked with 100 μl of 5% non-fat milk in PBS. Then, the plates were washed with 300 μl/well of PBST (0.1% Tween20). Next, incubation with 100 uL/well of different antibody dilutions. This was followed by four washes with PBST. Then, incubation with 100 uL/well of anti-human IgG-HRP (From KPL) (1:2000 dilution). This was followed by four washes with PBST. Next, 100 uL/well of TMB (from Biolengend), incubation for 30 minutes. Then, 100 uL/well of 2N H2SO4. Lastly, OD450 nm was detected in an xMark™ Microplate Spectrophotometer (from BIO-RAD). If not indicated otherwise, incubations were performed for 1 hour at RT, and antibodies were diluted in 2% non-fat milk in PBS.

[2] = biological target: T2, N3 (59-97); assay: as above
Description: as §1

[3] = biological target: T3, N1 peptide (AA25-39 of hGPC3); assay: as above
Description: as §1

[4] = biological target: T4, N4 (88-126); assay: as above
Description: as §1

[5] = biological target: T5, soluble hGPC3 protein (recombinant human glypican 3) (human, UniProt P51654 25-560, limits assumed); assay: BLI (Octet Red96), mAb captured on anti-hIgG Fc sensor, GPC3 as analyte, 1:1 fit, 25 C; BLI, soluble hGPC3
T5 construct: The construct used in ELISA and BLI and as FITC-labelled protein is not further defined; also called rhGPC3; FITC-labeled hGPC3
Description: (§2) Kinetics experiments were performed using the ForteBio Octet Red96 platform. All data were collected at 25° C. with orbital shaking at 1,000 rpm in 200 μL in 96-well black flat bottom plates (Greiner Bio-one). Anti-hIgG Fc Capture Sensor (ForteBio) were equilibrated for 10 min in 1×kinetics buffer prior to loading with 5 μg/mL of mAbs for 2 min. After the loading step, a 30 s baseline in 1×kinetics buffer was established before association with a range of concentrations of GPC3 for 2 min. Following mAbs association with GP, there was a 10-minute of dissociation step in kinetic buffer. For all experiments, two reference sensors without association to mAbs were used to account for nonspecific binding of analyte to the sensor and the system drift. All data were fit globally to a 1:1 Langmuir binding model using data analysis software 9.0 (ForteBio).
(§3) The 3 mAbs belong to different Ig classes, i.e., 6G11 and 12D7 are IgM, whereas 8F8 is IgG2a. To fairly compare their affinity, mAbs were generated recombinant using their VL and VH and a same human IgG constant region. Fig.3A illustrates the structure of the recombinant mAbs. The mAbs were expressed and purified from 293 cells (FIG 3B). […] The mAb's affinity was also studied by BioLayer Interferometry (BLI). […] The affinity data obtained by ELISA assay and BLI are in the same order, i.e., 6G11>12D7>8F8. Because the purpose of developing the mAbs is to bind hGPC3 molecules on the tumor cell surface, we determined the affinity of the mAbs for hGPC3 on HepG2 cells.

[6] = biological target: T5, soluble hGPC3 protein (recombinant …); assay: BLI, 1:1 global fit; kon Error 2.81E+02, R^2 0.9958
Description: as §2

[7] = biological target: T5, soluble hGPC3 protein (recombinant …); assay: BLI, 1:1 global fit; kdis(1/s); kdis Error 2.89E-06, R^2 0.9958
Description: as §2

[8] = biological target: T5, soluble hGPC3 protein (recombinant …); assay: ELISA of recombinant mAb on hGPC3, OD450
[9] = biological target: T6, hGPC3 on the surface of HCC tumor cells (HepG2; hGPC3low Huh7) (human, UniProt P51654 25-554); assay: immunofluorescent staining of HepG2 cells at different mAb concentrations, percent positive cells; hGPC3 on HepG2 cells
T6 construct: whole, on cells; GPI-anchored; also called hGPC3 on HepG2 cells; hGPC3 molecules on the tumor cell surface
Text: FIG. 3A is an illustration showing the schematic structure of the recombinant mAbs. SP: signal peptide of human IgG; VL: variable region of light chain; VH: variable region of heavy chain; CL: constant region of human IgG light chain; CH: constant region of human IgG heavy chain. FIG. 3B is gel showing PAGE analysis of purified recombinant mAbs under reduced and non-reduced condition. mAbs were purified from the 293 cells after co-transfection of the L and H chain expressing plasmids. Gel was stained with SimplyBlue SafeStain, FIG. 3C is a graph showing the EC50 of recombinant mAbs by ELISA. FIG. 3D is a panel of graphs showing the Kd value of each mAbs was measured by BLI. Each experiment was repeated at least 3 times and similar data were obtained. FIG. 3E is a graph showing the Kd value of mAbs 6G11, 8F8, and 12D7 for staining HepG2 tumor cells. Immunofluorescent staining was conducted for HepG2 tumor cells using the mAbs at different concentration. Based on the percent of positive cells and the mAb concentration, the Kd value was calculated by Prism software.
as §3

[10] = biological target: T5, soluble hGPC3 protein (recombinant …); assay: BLI, 1:1 global fit; KD Error 9.61E-11, R^2 0.9958
Description: as §2

[11] = biological target: T7, hGPC3-N fragment (AA1-358) (human, UniProt P51654 25-358); assay: flow cytometry, intracellular staining of 293 cells transfected with hGPC3-N; gate set on untransfected cells
T7 construct: range 1-358; Detected by intracellular staining or western blot of transfected 293/293T cells
Text: FIG. 1A is a table of 22 hGPC3-specific mAbs identified by ELISA assay. Their Ig class, staining of HepG2 cells, and binding of the hGPC3 N- or C-fragment were provided. […] FIG. 1B is a panel of micrographs showing representative immunofluorescent stainings of HepG2 tumor cells by 5 mAbs. FIG. 1C is a diagram of plasmids expressing the N- and C-fragments of hGPC3. FIG. 1D is a panel of graphs showing 293 cells transfected with either hGPC3-N or hGPC3-C plasmid intracellularly stained with indicated mAbs. The gate was set by the parental 293T cells without transfection.

[12] = biological target: T5, soluble hGPC3 protein (recombinant …); assay: BLI, 1:1 global fit; KD Error 8.68E-11, R^2 0.9939
Description: as §2

[13] = biological target: T5, soluble hGPC3 protein (recombinant …); assay: BLI, 1:1 global fit; kon Error 4.12E+02, R^2 0.9939
Description: as §2

[14] = biological target: T5, soluble hGPC3 protein (recombinant …); assay: BLI, 1:1 global fit; kdis(1/s); kdis Error 3.37E-06, R^2 0.9939
Description: as §2

[15] = biological target: T5, soluble hGPC3 protein (recombinant …); assay: BLI, 1:1 global fit; kdis(1/s); kdis Error 1.83E-06, R^2 0.9993
Description: as §2

[16] = biological target: T5, soluble hGPC3 protein (recombinant …); assay: BLI, 1:1 global fit; KD Error 2.90E-10, R^2 0.9993
Description: as §2

[17] = biological target: T5, soluble hGPC3 protein (recombinant …); assay: BLI, 1:1 global fit; kon Error 8.02E+01, R^2 0.9993
Description: as §2

T5 sequence (P51654 25-560 limits assumed): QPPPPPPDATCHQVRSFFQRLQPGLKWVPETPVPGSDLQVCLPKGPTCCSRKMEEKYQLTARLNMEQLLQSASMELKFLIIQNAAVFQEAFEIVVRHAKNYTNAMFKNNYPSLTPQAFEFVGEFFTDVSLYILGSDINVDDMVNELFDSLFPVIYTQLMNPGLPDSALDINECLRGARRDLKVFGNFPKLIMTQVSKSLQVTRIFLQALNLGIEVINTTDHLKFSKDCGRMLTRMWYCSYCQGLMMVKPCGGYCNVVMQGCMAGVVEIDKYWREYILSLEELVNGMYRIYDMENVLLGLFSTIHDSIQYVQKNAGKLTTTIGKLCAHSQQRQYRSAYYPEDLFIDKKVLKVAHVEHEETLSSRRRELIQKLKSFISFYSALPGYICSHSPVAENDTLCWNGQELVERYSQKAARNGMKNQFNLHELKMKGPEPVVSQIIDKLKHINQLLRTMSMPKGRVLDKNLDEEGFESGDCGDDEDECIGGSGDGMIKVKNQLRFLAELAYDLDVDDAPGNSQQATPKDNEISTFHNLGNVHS
T7 sequence (P51654 25-358 limits assumed, form in doubt): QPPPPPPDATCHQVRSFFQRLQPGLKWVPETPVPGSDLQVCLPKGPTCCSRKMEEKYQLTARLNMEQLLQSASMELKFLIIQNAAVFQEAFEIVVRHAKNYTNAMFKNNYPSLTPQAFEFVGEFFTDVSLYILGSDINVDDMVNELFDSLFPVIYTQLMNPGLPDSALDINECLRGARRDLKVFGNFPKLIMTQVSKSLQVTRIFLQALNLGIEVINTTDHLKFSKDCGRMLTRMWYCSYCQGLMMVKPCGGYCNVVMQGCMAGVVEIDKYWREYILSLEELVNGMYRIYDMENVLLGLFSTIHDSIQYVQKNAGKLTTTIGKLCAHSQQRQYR
T6 sequence (P51654 25-554 limits assumed): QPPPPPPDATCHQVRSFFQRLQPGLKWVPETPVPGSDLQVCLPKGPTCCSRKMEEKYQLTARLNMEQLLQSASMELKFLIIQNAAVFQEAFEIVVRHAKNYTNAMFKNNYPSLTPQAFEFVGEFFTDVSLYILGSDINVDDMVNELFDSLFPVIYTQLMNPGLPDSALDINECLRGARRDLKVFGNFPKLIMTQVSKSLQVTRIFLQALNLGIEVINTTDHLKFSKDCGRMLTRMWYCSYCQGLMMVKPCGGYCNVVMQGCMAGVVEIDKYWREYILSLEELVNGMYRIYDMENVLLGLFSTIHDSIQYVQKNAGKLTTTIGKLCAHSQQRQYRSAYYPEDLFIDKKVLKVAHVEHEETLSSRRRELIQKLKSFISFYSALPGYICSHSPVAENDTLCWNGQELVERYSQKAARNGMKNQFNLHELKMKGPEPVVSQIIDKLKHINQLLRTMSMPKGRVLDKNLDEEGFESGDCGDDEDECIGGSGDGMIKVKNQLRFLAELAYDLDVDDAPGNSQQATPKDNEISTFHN

Binder | binding result [3] | Kd [5] [nM] | EC50 [8] | EC50 [9] [nM] | % of cells in the positive gate [11] [%] | further results
mAb 12D7 (mouse hybridoma antibody) (antibody, V domains shown, Mouse IgM with kappa light chain, from hybridoma) VH: QVQLQQPGSELVRPGASVKLSCKASGYTFTSYWMHWVKQRLGQGLEWIGNIYPGSGSTNYDEKFKSKGTLTVDTSSSTAYMHLSSLTSEDSAVYYCTRGDYDWVFAYWGQGTLVTVSA VL: DIVMTQSQKFMSTSVGDRVSVTCKASQNVGTNVAWYQQKPGQSPKALIYSASYRYSGVPDRFTGSGSGTDFTLTISNVQSEDLAEYFCQQYNSYPLTFGAGTKLELKR | – | – | – | – | 43.2 | –
mAb 6G11 (mouse hybridoma antibody) (antibody, V domains shown, Mouse IgM with kappa light chain, from hybridoma; claim 21 names 5 and 7 as the amino acid entries) VH: QVQLQQPGSELVRPGASVKLSCKASGYTFTSCWMHWVKQRPGQGLEWIGNIYPGYGNTNYDEKFKNKATLTVDTSSSTAYMQLSGLTSEDSAVYYCTRGSYLYAMDYWGQGTSVTVSS VL: DIQMNQSPSSLSASLGDTITITCHASQNINVWLSWYQQKPGNIPKLLIYKASNLHTGVPSRFSGSGSGTGFTLTISSLQPEDIATYYCQQGQSYPWTFGGGTKLEIKR | – | – | – | – | 44.3 | –
mAb 8F8 (mouse hybridoma antibody) (antibody, V domains shown, Mouse IgG2a with kappa light chain, from hybridoma) VH: EVKLVESGGDLVKPGGSLKLSCAASGFTFSRYGLSWVRQTPEKRLEWVATISGSGSYTYYPDSVKGRFTISRDNAKNNLYLQMSSLRSEDTALYYCVRRGTYGYDNWGQGTTLTVSS VL: not shown | – | – | – | – | 0.31 | –

The next lines start with results.

binding result [3] | Kd [5] [nM] | EC50 [8] | EC50 [9] [nM] | % of cells in the positive gate [11] [%] | Binder | further results
no binding (tested: 10 µg/ml) | 9.8 | 0.125 µg/mL and 0.82 nM | 0.1 | – | recombinant mAb 12D7 (12D7 VL and VH fused to human IgG constant regions) (antibody, V domains shown, Expressed in 293 cells; only the claims assign heavy and light; also called 12D7 mAb) VH: QVQLQQPGSELVRPGASVKLSCKASGYTFTSYWMHWVKQRLGQGLEWIGNIYPGSGSTNYDEKFKSKGTLTVDTSSSTAYMHLSSLTSEDSAVYYCTRGDYDWVFAYWGQGTLVTVSA VL: DIVMTQSQKFMSTSVGDRVSVTCKASQNVGTNVAWYQQKPGQSPKALIYSASYRYSGVPDRFTGSGSGTDFTLTISNVQSEDLAEYFCQQYNSYPLTFGAGTKLELKR | binding result [1]: no binding (tested: 10 µg/ml); binding result [2]: no binding (tested: 10 µg/ml); binding result [4]: no binding (tested: 10 µg/ml); kon [6]: 41500 M⁻¹ s⁻¹; koff [7]: 0.000405 s⁻¹; EC50 (read off the curve) [8]: ~0.1 mg/L; Kd [10]: 9.76 nM
binds | 7.4 | 0.0072 µg/mL and 0.047 nM | 0.095 | – | recombinant mAb 6G11 (6G11 VL and VH fused to human IgG constant regions) (antibody, V domains shown, Expressed in 293 cells; only the claims assign heavy and light; also called 6G11 mAb) VH: QVQLQQPGSELVRPGASVKLSCKASGYTFTSCWMHWVKQRPGQGLEWIGNIYPGYGNTNYDEKFKNKATLTVDTSSSTAYMQLSGLTSEDSAVYYCTRGSYLYAMDYWGQGTSVTVSS VL: DIQMNQSPSSLSASLGDTITITCHASQNINVWLSWYQQKPGNIPKLLIYKASNLHTGVPSRFSGSGSGTGFTLTISSLQPEDIATYYCQQGQSYPWTFGGGTKLEIKR | Kd [12]: 7.43 nM; kon [13]: 52400 M⁻¹ s⁻¹; koff [14]: 0.000389 s⁻¹
– | 23 | 0.294 µg/mL and 1.93 nM | 12 | – | recombinant mAb 8F8 (8F8 VL and VH fused to human IgG constant regions) (antibody, V domains shown, Expressed in 293 cells; only the claims assign heavy and light; also called 8F8 mAb) VH: EVKLVESGGDLVKPGGSLKLSCAASGFTFSRYGLSWVRQTPEKRLEWVATISGSGSYTYYPDSVKGRFTISRDNAKNNLYLQMSSLRSEDTALYYCVRRGTYGYDNWGQGTTLTVSS VL: not shown | koff [15]: 0.000206 s⁻¹; Kd [16]: 22.9 nM; kon [17]: 8970 M⁻¹ s⁻¹
